Patent US20070020327A1
Like-named read-outs stand apart in the source and are kept apart here. Each block holds one binder with its values, some of them ahead of it.

Legend:
HLA-A*0202 (human) [1] = assay: competition with 125I-labeled probe peptide for purified HLA, gel filtration
HLA-A*0203 (human) [2] = assay: as above
HLA-A*0201 (human) [3] = assay: as above
HLA-A*6802 (human) [4] = assay: as above
HLA-A*0206 (human) [5] = assay: as above
HLA-A*0201 (human) [6] = assay: competitive inhibition of 125I-labelled standard peptide binding to purified HLA
HLA-A*6802 (human) [7] = assay: as above
HLA-A*0202 (human) [8] = assay: competition for purified HLA with 125I-labelled standard peptide 941.01 [..] as competitor, gel filtration; conditions: scale: ratio
HLA-A*0203 (human) [9] = assay: as above; conditions: scale: ratio
HLA-A*0201 (human) [10] = assay: as above; conditions: scale: ratio
HLA-A*0206 (human) [11] = assay: as above; conditions: scale: ratio
HLA-A*0202 (human) [12] = assay: competition with 125I-labelled standard peptide for purified HLA, gel filtration; ratio = IC50 standard / IC50 test peptide; conditions: remark: other sources report otherwise
HLA-A*0203 (human) [13] = assay: as above; conditions: remark: other sources report otherwise
HLA-A*0201 (human) [14] = assay: as above; conditions: remark: other sources report otherwise
HLA-A*0206 (human) [15] = assay: as above; conditions: remark: other sources report otherwise
HLA-A*0202 (human) [16] = assay: competitive inhibition of 125I-labelled standard peptide binding to purified HLA
HLA-A*0203 (human) [17] = assay: as above
HLA-A*0206 (human) [18] = assay: as above
HLA-A*0202 (human) [19] = assay: inhibition of 125I probe peptide binding to purified HLA, gel filtration; ratio = IC50 standard/IC50 test
HLA-A*0201 (human) [20] = assay: as above
HLA-A*6802 (human) [21] = assay: as above
HLA-A*0206 (human) [22] = assay: as above
[23] = molecular target: HLA-A*0201 (purified HLA class I molecule) (human); assay: competition with 125I-labelled standard peptide for purified HLA, gel filtration
[24] = molecular target: HLA-A*0206 (purified HLA class I molecule) (human); assay: as above
[25] = molecular target: HLA-A*0202 (purified HLA class I molecule) (human); assay: as above
[26] = remark: other sources report otherwise

B1: Peptide 1418.30 … (PSM.711.T2) (peptide)
peptide: ATFDIESKV
modifications: not checked
- IC50 (HLA-A*0202 (human) [1]): 27 nM
- IC50 (HLA-A*0203 (human) [2]): 44 nM
- IC50 (HLA-A*0201 (human) [3]): 238 nM
- IC50 (HLA-A*6802 (human) [4]): 258 nM
- IC50 (HLA-A*0206 (human) [5]): 82 nM

B2: Peptide 63.0014, … (PSA.117) (peptide)
peptide: LMLLRLSEPA
modifications: not checked
- IC50 (HLA-A*0201 (human) [6]; [26]): 200 nM
- IC50 (HLA-A*6802 (human) [7]; [26]): 5000 nM

B3: IALSVGCT (Kallikrein position 8, 8-mer) (peptide)
peptide: IALSVGCT
modifications: not checked
- binding affinity ratio (HLA-A*0202 (human) [8]): -0.0002
- binding affinity ratio (HLA-A*0203 (human) [9]): -0.0001
- binding affinity ratio (HLA-A*0201 (human) [10]): 0.0001
- binding affinity ratio (HLA-A*0206 (human) [11]): -0.0001

B5: PSA peptide …, position 138, 10 amino acids (peptide)
peptide: PTQEPALGTT
modifications: not checked
- binding affinity ratio (ratio to standard peptide) (HLA-A*0202 (human) [12]): 0.022
- binding affinity ratio (ratio to standard peptide) (HLA-A*0203 (human) [13]): 0.052
- binding affinity ratio (ratio to standard peptide) (HLA-A*0201 (human) [14]): 0.0084
- binding affinity ratio (ratio to standard peptide) (HLA-A*0206 (human) [15]): 0.0037

B6: Peptide 60.0217, … (PSA.5.V9) (peptide)
peptide: TLSVTWIGV
modifications: not checked
- IC50 (HLA-A*0202 (human) [16]; [26]): 4.9 nM
- IC50 (HLA-A*0203 (human) [17]; [26]): 40 nM
- IC50 (HLA-A*6802 (human) [7]; [26]): 229 nM
- IC50 (HLA-A*0206 (human) [18]; [26]): 712 nM

B7: ALPEKPAV (Kallikrein, position 235) (peptide)
peptide: ALPEKPAV
modifications: not checked
- binding affinity ratio (HLA-A*0202 (human) [19]; [26]): 0.02
- binding affinity ratio (HLA-A*0201 (human) [20]; [26]): 0.0009
- binding affinity ratio (HLA-A*6802 (human) [21]; [26]): -0.0001
- binding affinity ratio (HLA-A*0206 (human) [22]; [26]): 0.0001

B9: Kallikrein (hK2) peptide NLFEPEDT (position 79, 8 amino acids) (peptide)
peptide: NLFEPEDT
modifications: not checked
- binding affinity ratio (IC50 of standard peptide / IC50 of test peptide) [23]: 0.0002
- binding affinity ratio (IC50 of standard peptide / IC50 of test peptide) [24]: -0.0001

B11: Kallikrein (hK2) peptide …, position 142, 10 amino acids (peptide)
peptide: PTQEPALGTT
modifications: not checked
- binding affinity ratio (ratio to standard peptide) (HLA-A*0202 (human) [12]): 0.022
- binding affinity ratio (ratio to standard peptide) (HLA-A*0203 (human) [13]): 0.052
- binding affinity ratio (ratio to standard peptide) (HLA-A*0201 (human) [14]): 0.0084
- binding affinity ratio (ratio to standard peptide) (HLA-A*0206 (human) [15]): 0.0037

B12: Kallikrein (hK2) peptide MLCAGLWT (position 196, 8 amino acids) (peptide)
peptide: MLCAGLWT
modifications: not checked
- binding affinity ratio (IC50 of standard peptide / IC50 of test peptide) [25]: 0.002
- binding affinity ratio (IC50 of standard peptide / IC50 of test peptide) [24]: 0.0001

B14: PSM peptide … (position 26, 9 amino acids) (peptide)
peptide: LVLAGGFFL
modifications: not checked
- binding affinity ratio (IC50 of standard peptide / IC50 of test peptide) [25, 26]: 0.003

Next, values leading:

- binding affinity ratio (HLA-A*0203 (human) [9]): 0.0005
- binding affinity ratio (HLA-A*0201 (human) [10]): 0.002
- binding affinity ratio (HLA-A*0206 (human) [11]): 0.0009
B4: … (Kallikrein position 177, 9-mer) (peptide)
peptide: HLLSNDMCA
modifications: not checked

- binding affinity ratio (HLA-A*0202 (human) [19]; [26]): 0.0006
- binding affinity ratio (HLA-A*0201 (human) [20]; [26]): 0.0003
- binding affinity ratio (HLA-A*0206 (human) [22]; [26]): 0.0001
B8: … (Kallikrein, position 63) (peptide)
peptide: AAHCLKKNSQV
modifications: not checked

- binding affinity ratio (HLA-A*0202 (human) [19]): 0.005
- binding affinity ratio (HLA-A*0201 (human) [20]): 0.0003
- binding affinity ratio (HLA-A*6802 (human) [21]): -0.0001
- binding affinity ratio (HLA-A*0206 (human) [22]): 0.0005
B10: … (Kallikrein, position 235) (peptide)
peptide: ALPEKPAVYT
modifications: not checked

- binding affinity ratio (HLA-A*0202 (human) [8]; [26]): 0.0032
- binding affinity ratio (HLA-A*0203 (human) [9]; [26]): 0.027
- binding affinity ratio (HLA-A*0201 (human) [10]; [26]): 0.0009
- binding affinity ratio (HLA-A*0206 (human) [11]; [26]): 0.01
B13: … (Kallikrein position 8, 11-mer) (peptide)
peptide: IALSVGCTGAV
modifications: not checked

- IC50 (HLA-A*0202 (human) [16]): 2.9 nM
- IC50 (HLA-A*0203 (human) [17]): 12 nM
- IC50 (HLA-A*0201 (human) [6]): 10 nM
- IC50 (HLA-A*6802 (human) [7]): 3.5 nM
- IC50 (HLA-A*0206 (human) [18]): 5.6 nM
B15: Peptide 1418.55, … (PSA.213.V10) (peptide)
peptide: LVCNGVLQGV
modifications: not checked
